Measurements taken from the supplement of paper PMC9112550, “Optimization of the antimicrobial peptide Bac7 by deep mutational scanning” (BMC Biology, 2022).

System: Escherichia coli TOP10
Test: shrunken log2 fold change of peptide-encoding DNA abundance (4.5 h post-induction vs induction); higher = less antimicrobial activity (less host growth inhibition)
Settings: time post-induction: 4.5 h; library: site-saturation at positions 5, 18, 19, 20
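Also: peptides expressed intracellularly from a pBAD plasmid library in pooled LB shake-flask culture, induced with 0.3% L-arabinose, DNA abundance read by NGS, three biological replicates, DESeq2 with apeglm shrinkage.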

Sequence | shrunken log2 fold change
RRIRSRPPRLPRPRPRPNNQPRP | -0.104
RRIRSRPPRLPRPRPRPNPAPRP | -0.0743
RRIRSRPPRLPRPRPRPNPPPRP | -0.222
RRIRSRPPRLPRPRPRPNPWPRP | -0.0604
RRIRSRPPRLPRPRPRPNQIPRP | 0.0721
RRIRSRPPRLPRPRPRPNQKPRP | -0.162
RRIRSRPPRLPRPRPRPNQTPRP | 0.0606
RRIRSRPPRLPRPRPRPNRPPRP | -0.0188
RRIRSRPPRLPRPRPRPNRSPRP | -0.0737
RRIRSRPPRLPRPRPRPNSTPRP | -0.573
RRIRSRPPRLPRPRPRPNSVPRP | -0.509
RRIRSRPPRLPRPRPRPNSYPRP | -0.00251
RRIRSRPPRLPRPRPRPNTCPRP | -0.808
RRIRSRPPRLPRPRPRPNVCPRP | -0.0635
RRIRSRPPRLPRPRPRPNVEPRP | 0.814
RRIRSRPPRLPRPRPRPNVGPRP | -0.0139
RRIRSRPPRLPRPRPRPNVYPRP | -0.257
RRIRSRPPRLPRPRPRPNWAPRP | 0.64
RRIRSRPPRLPRPRPRPNWHPRP | -0.137
RRIRSRPPRLPRPRPRPPDFPRP | 0.29
RRIRSRPPRLPRPRPRPPDPPRP | 0.472
RRIRSRPPRLPRPRPRPPDYPRP | -0.0864
RRIRSRPPRLPRPRPRPPECPRP | 0.0423
RRIRSRPPRLPRPRPRPPEKPRP | 0.797
RRIRSRPPRLPRPRPRPPENPRP | 0.679

Sequence | shrunken log2 fold change
RRIRSRPPRLPRPRPRPPEPPRP | 0.373
RRIRSRPPRLPRPRPRPPFEPRP | 0.518
RRIRSRPPRLPRPRPRPPFIPRP | -0.252
RRIRSRPPRLPRPRPRPPFLPRP | -0.0588
RRIRSRPPRLPRPRPRPPGIPRP | 0.157
RRIRSRPPRLPRPRPRPPIIPRP | -0.135
RRIRSRPPRLPRPRPRPPNFPRP | 0.291
RRIRSRPPRLPRPRPRPPNMPRP | -0.118
RRIRSRPPRLPRPRPRPPPLPRP | 0.739
RRIRSRPPRLPRPRPRPPPMPRP | 0.817
RRIRSRPPRLPRPRPRPPQAPRP | 0.768
RRIRSRPPRLPRPRPRPPRHPRP | 0.219
RRIRSRPPRLPRPRPRPPRTPRP | 0.619
RRIRSRPPRLPRPRPRPPSWPRP | 0.482
RRIRSRPPRLPRPRPRPPVTPRP | -0.0798
RRIRSRPPRLPRPRPRPQACPRP | 0.125
RRIRSRPPRLPRPRPRPQAFPRP | -0.114
RRIRSRPPRLPRPRPRPQARPRP | 0.122
RRIRSRPPRLPRPRPRPQCPPRP | -0.172
RRIRSRPPRLPRPRPRPQFHPRP | -0.206
RRIRSRPPRLPRPRPRPQFTPRP | -0.714
RRIRSRPPRLPRPRPRPQFVPRP | -0.184
RRIRSRPPRLPRPRPRPQGGPRP | 0.171
RRIRSRPPRLPRPRPRPQGLPRP | 0.0641
RRIRSRPPRLPRPRPRPQGPPRP | -0.0522

Sequence | shrunken log2 fold change
RRIRSRPPRLPRPRPRPQHSPRP | -0.658
RRIRSRPPRLPRPRPRPQKFPRP | -0.14
RRIRSRPPRLPRPRPRPQKKPRP | -0.0597
RRIRSRPPRLPRPRPRPQLEPRP | 0.455
RRIRSRPPRLPRPRPRPQLPPRP | 0.53
RRIRSRPPRLPRPRPRPQLTPRP | -0.136
RRIRSRPPRLPRPRPRPQNRPRP | -0.106
RRIRSRPPRLPRPRPRPQPWPRP | 0.366
RRIRSRPPRLPRPRPRPQSTPRP | -0.24
RRIRSRPPRLPRPRPRPQTFPRP | -0.136
RRIRSRPPRLPRPRPRPQTHPRP | 0.901
RRIRSRPPRLPRPRPRPRAPPRP | 0.716
RRIRSRPPRLPRPRPRPRAQPRP | 0.106
RRIRSRPPRLPRPRPRPRARPRP | 0.408
RRIRSRPPRLPRPRPRPRCHPRP | -0.0928
RRIRSRPPRLPRPRPRPRDHPRP | 0.0497
RRIRSRPPRLPRPRPRPRDNPRP | -0.0866
RRIRSRPPRLPRPRPRPRETPRP | 0.124
RRIRSRPPRLPRPRPRPRHKPRP | -0.262
RRIRSRPPRLPRPRPRPRIDPRP | 0.0938
RRIRSRPPRLPRPRPRPRKKPRP | 0.362
RRIRSRPPRLPRPRPRPRLDPRP | 0.25
RRIRSRPPRLPRPRPRPRMMPRP | 0.0975
RRIRSRPPRLPRPRPRPRMNPRP | 0.079
RRIRSRPPRLPRPRPRPRMQPRP | 0.108
